T1: CD30 fused to the Fc region of IgG1 (R&D Systems) (UniProt P28908 19-379)
T1 sequence (looked up): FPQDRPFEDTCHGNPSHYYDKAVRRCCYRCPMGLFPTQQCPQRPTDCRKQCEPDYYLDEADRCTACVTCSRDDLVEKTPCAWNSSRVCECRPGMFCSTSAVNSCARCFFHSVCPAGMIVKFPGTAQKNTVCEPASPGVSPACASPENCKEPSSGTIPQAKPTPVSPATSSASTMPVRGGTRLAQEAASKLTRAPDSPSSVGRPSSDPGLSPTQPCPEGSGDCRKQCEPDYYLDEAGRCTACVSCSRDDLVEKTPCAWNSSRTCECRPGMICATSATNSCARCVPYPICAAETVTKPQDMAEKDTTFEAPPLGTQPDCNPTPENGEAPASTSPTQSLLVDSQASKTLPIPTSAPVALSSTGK

T2: human CD30 (commercial, conjugated to digoxigenin) (human, UniProt P28908 19-379, limits assumed, conjugated to digoxigenin (DIG))
T2 sequence (looked up): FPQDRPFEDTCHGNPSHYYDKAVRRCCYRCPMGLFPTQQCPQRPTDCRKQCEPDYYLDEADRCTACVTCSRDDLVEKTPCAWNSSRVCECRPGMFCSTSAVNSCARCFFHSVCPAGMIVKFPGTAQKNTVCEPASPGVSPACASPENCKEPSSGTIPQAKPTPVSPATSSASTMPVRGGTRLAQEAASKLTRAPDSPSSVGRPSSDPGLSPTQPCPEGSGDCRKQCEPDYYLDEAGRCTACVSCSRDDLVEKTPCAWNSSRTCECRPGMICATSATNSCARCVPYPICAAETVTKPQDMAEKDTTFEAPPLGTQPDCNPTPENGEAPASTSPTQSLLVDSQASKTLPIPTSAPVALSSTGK

B1: AC10 H2/L1 full length antibody (antibody, V domains shown)
VH: QIQLVESGGGLVKPGGSLRLSCAASGYTFTDYYITWVRQAPGQGLEWMGWIYPGSGNTKYNEKFQGRVTMTVDTSTSTAYMELSSLRSEDTAVYFCANYGNYWFAYWGQGTLVTVSS
VL: DIVLTQSPATLSLSPGERATLSCRASQSVDFDGDSYMNWYQQKPGQPPKVLIYAASNLESGIPARFSGSGSGTDFTLTISSLQPEDFATYYCQQSNEDPWTFGGGTKVEIK
B2: AC10 H2/L2 full length antibody (antibody, V domains shown)
VH: QIQLVESGGGLVKPGGSLRLSCAASGYTFTDYYITWVRQAPGQGLEWMGWIYPGSGNTKYNEKFQGRVTMTVDTSTSTAYMELSSLRSEDTAVYFCANYGNYWFAYWGQGTLVTVSS
VL: DIVLTQSPSSLSASVGDRVTITCRASQSVDFDGDSYMNWYQQKPGQPPKVLIYAASNLESGIPARFSGSGSGTDFTLTISSLQPEDFATYYCQQSNEDPWTFGGGTKVEIK
B3: AC10 H0/L2 full length antibody (antibody, V domains shown)
VH: QIQLQQSGPEVVKPGASVKISCKASGYTFTDYYITWVKQKPGQGLEWIGWIYPGSGNTKYNEKFKGKATLTVDTSSSTAFMQLSSLTSEDTAVYFCANYGNYWFAYWGQGTQVTVSA
VL: DIVLTQSPSSLSASVGDRVTITCRASQSVDFDGDSYMNWYQQKPGQPPKVLIYAASNLESGIPARFSGSGSGTDFTLTISSLQPEDFATYYCQQSNEDPWTFGGGTKVEIK
B4: AC10 H0/L1 full length antibody (antibody, V domains shown)
VH: QIQLQQSGPEVVKPGASVKISCKASGYTFTDYYITWVKQKPGQGLEWIGWIYPGSGNTKYNEKFKGKATLTVDTSSSTAFMQLSSLTSEDTAVYFCANYGNYWFAYWGQGTQVTVSA
VL: DIVLTQSPATLSLSPGERATLSCRASQSVDFDGDSYMNWYQQKPGQPPKVLIYAASNLESGIPARFSGSGSGTDFTLTISSLQPEDFATYYCQQSNEDPWTFGGGTKVEIK
B5: AC10 H1/L3 full length antibody (antibody, V domains shown)
VH: QIQLVQSGPEVKKPGASVKVSCKASGYTFTDYYITWVRQAPGQGLEWMGWIYPGSGNTKYNEKFQGRVTITVDTSASTAYMELSSLRSEDTAVYFCANYGNYWFAYWGQGTLVTVSS
VL: DIVLTQSPDSLAVSLGERATINCKASQSVDFDGDSYMNWYQQKPGQPPKVLIYAASNLESGIPARFSGSGSGTDFTLTINSLEAEDAATYYCQQSNEDPWTFGGGTKVEIK
B6: AC10 H2/L0 full length antibody (antibody, V domains shown)
VH: QIQLVESGGGLVKPGGSLRLSCAASGYTFTDYYITWVRQAPGQGLEWMGWIYPGSGNTKYNEKFQGRVTMTVDTSTSTAYMELSSLRSEDTAVYFCANYGNYWFAYWGQGTLVTVSS
VL: DIVLTQSPASLAVSLGQRATISCKASQSVDFDGDSYMNWYQQKPGQPPKVLIYAASNLESGIPARFSGSGSGTDFTLNIHPVEEEDAATYYCQQSNEDPWTFGGGTKLEIK
B7: AC10 H3/L3 full length antibody (antibody, V domains shown)
VH: QIQLVQSGPEVKKPGASVKVSCKASGYTFTDYYITWVRQAPGQGLEWMGWIYPGSGNTKYNEKFQGRFVFSVDTSASTAYLQISSLKAEDTAVYFCANYGNYWFAYWGQGTLVTVSS
VL: DIVLTQSPDSLAVSLGERATINCKASQSVDFDGDSYMNWYQQKPGQPPKVLIYAASNLESGIPARFSGSGSGTDFTLTINSLEAEDAATYYCQQSNEDPWTFGGGTKVEIK
B8: AC10 H1/L0 full length antibody (antibody, V domains shown)
VH: QIQLVQSGPEVKKPGASVKVSCKASGYTFTDYYITWVRQAPGQGLEWMGWIYPGSGNTKYNEKFQGRVTITVDTSASTAYMELSSLRSEDTAVYFCANYGNYWFAYWGQGTLVTVSS
VL: DIVLTQSPASLAVSLGQRATISCKASQSVDFDGDSYMNWYQQKPGQPPKVLIYAASNLESGIPARFSGSGSGTDFTLNIHPVEEEDAATYYCQQSNEDPWTFGGGTKLEIK
B9: AC10 H1/L1 full length antibody (antibody, V domains shown)
VH: QIQLVQSGPEVKKPGASVKVSCKASGYTFTDYYITWVRQAPGQGLEWMGWIYPGSGNTKYNEKFQGRVTITVDTSASTAYMELSSLRSEDTAVYFCANYGNYWFAYWGQGTLVTVSS
VL: DIVLTQSPATLSLSPGERATLSCRASQSVDFDGDSYMNWYQQKPGQPPKVLIYAASNLESGIPARFSGSGSGTDFTLTISSLQPEDFATYYCQQSNEDPWTFGGGTKVEIK
B10: AC10 H0/L3 full length antibody (antibody, V domains shown)
VH: QIQLQQSGPEVVKPGASVKISCKASGYTFTDYYITWVKQKPGQGLEWIGWIYPGSGNTKYNEKFKGKATLTVDTSSSTAFMQLSSLTSEDTAVYFCANYGNYWFAYWGQGTQVTVSA
VL: DIVLTQSPDSLAVSLGERATINCKASQSVDFDGDSYMNWYQQKPGQPPKVLIYAASNLESGIPARFSGSGSGTDFTLTINSLEAEDAATYYCQQSNEDPWTFGGGTKVEIK
B11: AC10 H1/L2 full length antibody (antibody, V domains shown)
VH: QIQLVQSGPEVKKPGASVKVSCKASGYTFTDYYITWVRQAPGQGLEWMGWIYPGSGNTKYNEKFQGRVTITVDTSASTAYMELSSLRSEDTAVYFCANYGNYWFAYWGQGTLVTVSS
VL: DIVLTQSPSSLSASVGDRVTITCRASQSVDFDGDSYMNWYQQKPGQPPKVLIYAASNLESGIPARFSGSGSGTDFTLTISSLQPEDFATYYCQQSNEDPWTFGGGTKVEIK
B12: AC10 H3/L1 full length antibody (antibody, V domains shown)
VH: QIQLVQSGPEVKKPGASVKVSCKASGYTFTDYYITWVRQAPGQGLEWMGWIYPGSGNTKYNEKFQGRFVFSVDTSASTAYLQISSLKAEDTAVYFCANYGNYWFAYWGQGTLVTVSS
VL: DIVLTQSPATLSLSPGERATLSCRASQSVDFDGDSYMNWYQQKPGQPPKVLIYAASNLESGIPARFSGSGSGTDFTLTISSLQPEDFATYYCQQSNEDPWTFGGGTKVEIK
B13: AC10 H2/L3 full length antibody (antibody, V domains shown)
VH: QIQLVESGGGLVKPGGSLRLSCAASGYTFTDYYITWVRQAPGQGLEWMGWIYPGSGNTKYNEKFQGRVTMTVDTSTSTAYMELSSLRSEDTAVYFCANYGNYWFAYWGQGTLVTVSS
VL: DIVLTQSPDSLAVSLGERATINCKASQSVDFDGDSYMNWYQQKPGQPPKVLIYAASNLESGIPARFSGSGSGTDFTLTINSLEAEDAATYYCQQSNEDPWTFGGGTKVEIK
B14: AC10 H3/L0 full length antibody (antibody, V domains shown)
VH: QIQLVQSGPEVKKPGASVKVSCKASGYTFTDYYITWVRQAPGQGLEWMGWIYPGSGNTKYNEKFQGRFVFSVDTSASTAYLQISSLKAEDTAVYFCANYGNYWFAYWGQGTLVTVSS
VL: DIVLTQSPASLAVSLGQRATISCKASQSVDFDGDSYMNWYQQKPGQPPKVLIYAASNLESGIPARFSGSGSGTDFTLNIHPVEEEDAATYYCQQSNEDPWTFGGGTKLEIK
B15: AC10 H3/L2 full length antibody (antibody, V domains shown)
VH: QIQLVQSGPEVKKPGASVKVSCKASGYTFTDYYITWVRQAPGQGLEWMGWIYPGSGNTKYNEKFQGRFVFSVDTSASTAYLQISSLKAEDTAVYFCANYGNYWFAYWGQGTLVTVSS
VL: DIVLTQSPSSLSASVGDRVTITCRASQSVDFDGDSYMNWYQQKPGQPPKVLIYAASNLESGIPARFSGSGSGTDFTLTISSLQPEDFATYYCQQSNEDPWTFGGGTKVEIK
B16: C225 L2/H5 full length antibody (antibody, IgG1, V domains shown)
VH: QVQLQQSGPGLVKPSQTLSLTCTVSGFSLTNYGVHWVRQAPGKGLEWLGVIWSGGNTDYNTPLTSRLTINKDNSKSQVVLQMNSLRAEDTAVYYCARALTYYDYEFAYWGQGTLVTVSS
VL: DILLTQSPATLSLSPGERVTLSCRASQSIGTNIHWYQQKPDQSPKLLIKYASESISGIPSRFSGSGSGTDFTLTISSLQPEDFADYYCQQNNNWPTTFGAGTKLEIK
B17: C225 L2/H6 full length antibody (antibody, IgG1, V domains shown)
VH: QVQLQQSGPGLVKPSQTLSLTCTVSGFSLTNYGVHWVRQAPGKGLEWVGVIWSGGNTDYNTSVKGRFTISKDNSKSQVYLQMNSLRAEDTAVYYCARALTYYDYEFAYWGQGTLVTVSS
VL: DILLTQSPATLSLSPGERVTLSCRASQSIGTNIHWYQQKPDQSPKLLIKYASESISGIPSRFSGSGSGTDFTLTISSLQPEDFADYYCQQNNNWPTTFGAGTKLEIK

What was measured:
[1] = target: T1, CD30 fused to the Fc region of IgG1 …; assay: SPR, CD30-Fc on Protein A chip
[2] = target: T2, human CD30 (commercial, conjugated to …); assay: AlphaScreen competition vs biotin-WT AC10
[3] = target: EGFR extracellular domain (R&D Systems) (UniProt P00533 25-645, limits assumed); assay: SPR, full length antibody over EGFR chip

| Binder | Fold KD vs WT [1] | Kd [1] | Fold IC50 vs WT [2] | IC50 [2] | binding result [3] |
| --- | --- | --- | --- | --- | --- |
| B1 | 0.36 fold | 9.49 nM | 0.06 fold | 55.1 nM |  |
| B2 | 0.57 fold | 5.95 nM | 0.06 fold | 49.2 nM |  |
| B3 | 0.97 fold | 3.48 nM | 0.41 fold | 7.81 nM |  |
| B4 | 1.03 fold | 3.29 nM | 0.61 fold | 5.19 nM |  |
| B5 | 0.67 fold | 5.09 nM | 0.18 fold | 17.4 nM |  |
| B6 | 0.42 fold | 8 nM | 0.16 fold | 19.4 nM |  |
| B7 | 1.45 fold | 2.33 nM | 1.59 fold | 1.99 nM |  |
| B8 | 0.53 fold | 6.39 nM | 0.32 fold | 9.77 nM |  |
| B9 | 0.6 fold | 5.63 nM | 0.11 fold | 27.7 nM |  |
| B10 | 1.13 fold | 3 nM | 0.69 fold | 4.61 nM |  |
| B11 | 0.45 fold | 7.55 nM | 0.07 fold | 45.3 nM |  |
| B12 | 1.39 fold | 2.44 nM | 0.52 fold | 6.09 nM |  |
| B13 | 0.5 fold | 6.75 nM | 0.12 fold | 27.2 nM |  |
| B14 | 1.1 fold | 3.08 nM | 0.51 fold | 6.18 nM |  |
| B15 | 1.19 fold | 2.86 nM | 0.48 fold | 6.57 nM |  |
| B16 |  |  |  |  | binds |
| B17 |  |  |  |  | binds |
